These results are taken from patent publication US20030124152A1.

This assay deals with Human collagen Type I (acid soluble) (human) (UniProt P02452). In words: cell-based or functional assay.
Chain of UniProt P02452 (P02452 162-1218 limits assumed, chain 1 of 2): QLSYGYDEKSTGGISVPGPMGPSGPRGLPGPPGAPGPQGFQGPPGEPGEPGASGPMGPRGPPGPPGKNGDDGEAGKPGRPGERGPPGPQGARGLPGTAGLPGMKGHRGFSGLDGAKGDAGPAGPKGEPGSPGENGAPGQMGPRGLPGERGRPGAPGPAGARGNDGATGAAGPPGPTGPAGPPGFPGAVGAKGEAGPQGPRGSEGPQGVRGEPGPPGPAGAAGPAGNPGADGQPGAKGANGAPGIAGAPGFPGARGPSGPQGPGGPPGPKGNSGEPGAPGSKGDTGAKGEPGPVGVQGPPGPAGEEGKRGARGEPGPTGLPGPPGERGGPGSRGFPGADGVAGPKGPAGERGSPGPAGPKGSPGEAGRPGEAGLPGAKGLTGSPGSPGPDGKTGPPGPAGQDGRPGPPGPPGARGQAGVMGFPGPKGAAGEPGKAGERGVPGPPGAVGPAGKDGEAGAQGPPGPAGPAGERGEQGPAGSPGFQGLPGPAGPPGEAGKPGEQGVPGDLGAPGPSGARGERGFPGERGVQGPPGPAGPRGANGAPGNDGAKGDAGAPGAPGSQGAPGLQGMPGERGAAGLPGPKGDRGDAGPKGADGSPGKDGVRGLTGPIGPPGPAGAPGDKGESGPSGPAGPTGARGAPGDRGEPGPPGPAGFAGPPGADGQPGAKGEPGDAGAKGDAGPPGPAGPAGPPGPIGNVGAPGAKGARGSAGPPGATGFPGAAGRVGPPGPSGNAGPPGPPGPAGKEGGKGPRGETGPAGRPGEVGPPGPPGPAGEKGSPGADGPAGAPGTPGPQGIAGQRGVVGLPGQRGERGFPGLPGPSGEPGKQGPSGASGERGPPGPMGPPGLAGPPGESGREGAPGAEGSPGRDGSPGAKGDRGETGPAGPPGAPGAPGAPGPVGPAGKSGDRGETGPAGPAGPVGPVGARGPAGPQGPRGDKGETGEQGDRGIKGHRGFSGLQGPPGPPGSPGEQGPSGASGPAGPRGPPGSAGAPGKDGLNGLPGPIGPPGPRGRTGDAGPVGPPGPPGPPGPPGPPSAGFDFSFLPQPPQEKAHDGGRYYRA
Chain of UniProt P02452 (P08123 80-1119 limits assumed, chain 2 of 2, further chain): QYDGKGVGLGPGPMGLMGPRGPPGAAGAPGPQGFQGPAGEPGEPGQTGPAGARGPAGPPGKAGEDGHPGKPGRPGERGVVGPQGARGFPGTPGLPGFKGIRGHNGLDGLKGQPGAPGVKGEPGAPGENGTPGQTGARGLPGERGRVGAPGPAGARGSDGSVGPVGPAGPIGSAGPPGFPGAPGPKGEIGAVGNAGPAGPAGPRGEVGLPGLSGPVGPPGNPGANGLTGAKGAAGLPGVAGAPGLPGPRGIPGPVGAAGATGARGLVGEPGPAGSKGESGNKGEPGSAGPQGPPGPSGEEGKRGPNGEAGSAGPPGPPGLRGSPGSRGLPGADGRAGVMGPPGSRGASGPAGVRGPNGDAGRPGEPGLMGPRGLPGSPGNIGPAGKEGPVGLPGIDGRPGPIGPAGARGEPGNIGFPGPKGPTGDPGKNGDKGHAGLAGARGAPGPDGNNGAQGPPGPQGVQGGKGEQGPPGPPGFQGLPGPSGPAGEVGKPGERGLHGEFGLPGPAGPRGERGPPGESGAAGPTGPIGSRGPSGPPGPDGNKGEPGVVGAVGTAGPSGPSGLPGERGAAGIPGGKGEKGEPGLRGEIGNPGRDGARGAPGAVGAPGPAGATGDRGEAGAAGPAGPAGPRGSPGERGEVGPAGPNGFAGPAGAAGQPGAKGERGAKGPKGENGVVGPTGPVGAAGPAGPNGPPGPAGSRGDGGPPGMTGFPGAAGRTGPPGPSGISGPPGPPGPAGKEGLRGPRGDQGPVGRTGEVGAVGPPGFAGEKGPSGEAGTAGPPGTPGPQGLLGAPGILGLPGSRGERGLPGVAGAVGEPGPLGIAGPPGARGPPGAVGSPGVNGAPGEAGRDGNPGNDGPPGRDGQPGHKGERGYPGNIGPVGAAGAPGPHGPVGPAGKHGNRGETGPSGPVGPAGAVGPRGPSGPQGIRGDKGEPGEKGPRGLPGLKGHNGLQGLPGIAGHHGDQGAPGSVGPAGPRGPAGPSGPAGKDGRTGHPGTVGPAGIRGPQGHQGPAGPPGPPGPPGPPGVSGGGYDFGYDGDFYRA

B1: human decorin core protein (HDCP) (protein)
chain: VEASGIGPEVPDDRDFEPSLGPVCPFRCQCHLRVVQCSDLGLDKVPKDLPPDTTLLDLQNNKITEIKDGDFKNLKNLHALILVNNKISKVSPGAFTPLVKLERLYLSKNQLKELPEKMPKTLQELRAHENEITKVRKVTFNGLNQMIVIELGTNPLKSSGIENGAFQGMKKLSYIRIADTNITSIPQGLPPSLTELHLDGNKISRVDAASLKGLNNLAKLGLSFNSISAVDNGSLANTPHLRELHLDNNKLTRVPGGLAEHKYIQVVYLHNNNISVVGSSDFCPPGHNTKKASYSGVSLFSNPVQYWEIQPSTFRCVYVRSAIQLGNYK
modifications: possible initiator Met
B1: the Collagen Protection Assay, collagen band density, C + D + Z, 0 min (optical density/mm^2) is 10.4; the Collagen Protection Assay, collagen band density, C + D + Z, 30 min (optical density/mm^2) was found to be 9.37; the Collagen Protection Assay, collagen band density, C + D + Z, 60 min (optical density/mm^2) came to 5.89; the Collagen Protection Assay, collagen band density, C + D + Z, 90 min (optical density/mm^2) is 1.67. Further, the Collagen Type I Degradation Rate (%), C + D + Z, 30 min was 9.49%; the Collagen Type I Degradation Rate (%), C + D + Z, 60 min came out at 37.1%; the Collagen Type I Degradation Rate (%), C + D + Z, 90 min was found to be 71.6%.
